From article PMC10794133, “Structures of the promoter-bound respiratory syncytial virus polymerase” come the findings set out here.

In series [1] the target is T1, RSV L (RNA-dependent RNA polymerase);RSV P (phosphoprotein) (human respiratory syncytial virus, …, UniProt P28887;P03421 1-2165;1-241, |). Description: cryo-EM structure; pre-initiation at position 1; Cryo-EM grid conditions not in the material; protein in 25 mM HEPES pH 7.4, 300 mM NaCl, 6 mM MgSO4, 0.5 mM TCEP (gel filtration buffer). Particulars: protein: recombinant;recombinant; tags: N-terminal 6xHis-TEV, TEV-treated;; copies: 1;4; single strand. For orientation: In gel filtration, larger molecules generally elute earlier.

For series [2], the target named is T1, RSV L (RNA-dependent RNA …). Description: cryo-EM structure; GTP and CpNpp supplemented (no product density); pre-initiation at position 3; Cryo-EM grid conditions not in the material; protein in 25 mM HEPES pH 7.4, 300 mM NaCl, 6 mM MgSO4, 0.5 mM TCEP (gel filtration buffer). Particulars: protein: recombinant;recombinant; tags: N-terminal 6xHis-TEV, TEV-treated;; copies: 1;4; single strand.

T1 sequence (P28887 whole entry, chain 1 of 2): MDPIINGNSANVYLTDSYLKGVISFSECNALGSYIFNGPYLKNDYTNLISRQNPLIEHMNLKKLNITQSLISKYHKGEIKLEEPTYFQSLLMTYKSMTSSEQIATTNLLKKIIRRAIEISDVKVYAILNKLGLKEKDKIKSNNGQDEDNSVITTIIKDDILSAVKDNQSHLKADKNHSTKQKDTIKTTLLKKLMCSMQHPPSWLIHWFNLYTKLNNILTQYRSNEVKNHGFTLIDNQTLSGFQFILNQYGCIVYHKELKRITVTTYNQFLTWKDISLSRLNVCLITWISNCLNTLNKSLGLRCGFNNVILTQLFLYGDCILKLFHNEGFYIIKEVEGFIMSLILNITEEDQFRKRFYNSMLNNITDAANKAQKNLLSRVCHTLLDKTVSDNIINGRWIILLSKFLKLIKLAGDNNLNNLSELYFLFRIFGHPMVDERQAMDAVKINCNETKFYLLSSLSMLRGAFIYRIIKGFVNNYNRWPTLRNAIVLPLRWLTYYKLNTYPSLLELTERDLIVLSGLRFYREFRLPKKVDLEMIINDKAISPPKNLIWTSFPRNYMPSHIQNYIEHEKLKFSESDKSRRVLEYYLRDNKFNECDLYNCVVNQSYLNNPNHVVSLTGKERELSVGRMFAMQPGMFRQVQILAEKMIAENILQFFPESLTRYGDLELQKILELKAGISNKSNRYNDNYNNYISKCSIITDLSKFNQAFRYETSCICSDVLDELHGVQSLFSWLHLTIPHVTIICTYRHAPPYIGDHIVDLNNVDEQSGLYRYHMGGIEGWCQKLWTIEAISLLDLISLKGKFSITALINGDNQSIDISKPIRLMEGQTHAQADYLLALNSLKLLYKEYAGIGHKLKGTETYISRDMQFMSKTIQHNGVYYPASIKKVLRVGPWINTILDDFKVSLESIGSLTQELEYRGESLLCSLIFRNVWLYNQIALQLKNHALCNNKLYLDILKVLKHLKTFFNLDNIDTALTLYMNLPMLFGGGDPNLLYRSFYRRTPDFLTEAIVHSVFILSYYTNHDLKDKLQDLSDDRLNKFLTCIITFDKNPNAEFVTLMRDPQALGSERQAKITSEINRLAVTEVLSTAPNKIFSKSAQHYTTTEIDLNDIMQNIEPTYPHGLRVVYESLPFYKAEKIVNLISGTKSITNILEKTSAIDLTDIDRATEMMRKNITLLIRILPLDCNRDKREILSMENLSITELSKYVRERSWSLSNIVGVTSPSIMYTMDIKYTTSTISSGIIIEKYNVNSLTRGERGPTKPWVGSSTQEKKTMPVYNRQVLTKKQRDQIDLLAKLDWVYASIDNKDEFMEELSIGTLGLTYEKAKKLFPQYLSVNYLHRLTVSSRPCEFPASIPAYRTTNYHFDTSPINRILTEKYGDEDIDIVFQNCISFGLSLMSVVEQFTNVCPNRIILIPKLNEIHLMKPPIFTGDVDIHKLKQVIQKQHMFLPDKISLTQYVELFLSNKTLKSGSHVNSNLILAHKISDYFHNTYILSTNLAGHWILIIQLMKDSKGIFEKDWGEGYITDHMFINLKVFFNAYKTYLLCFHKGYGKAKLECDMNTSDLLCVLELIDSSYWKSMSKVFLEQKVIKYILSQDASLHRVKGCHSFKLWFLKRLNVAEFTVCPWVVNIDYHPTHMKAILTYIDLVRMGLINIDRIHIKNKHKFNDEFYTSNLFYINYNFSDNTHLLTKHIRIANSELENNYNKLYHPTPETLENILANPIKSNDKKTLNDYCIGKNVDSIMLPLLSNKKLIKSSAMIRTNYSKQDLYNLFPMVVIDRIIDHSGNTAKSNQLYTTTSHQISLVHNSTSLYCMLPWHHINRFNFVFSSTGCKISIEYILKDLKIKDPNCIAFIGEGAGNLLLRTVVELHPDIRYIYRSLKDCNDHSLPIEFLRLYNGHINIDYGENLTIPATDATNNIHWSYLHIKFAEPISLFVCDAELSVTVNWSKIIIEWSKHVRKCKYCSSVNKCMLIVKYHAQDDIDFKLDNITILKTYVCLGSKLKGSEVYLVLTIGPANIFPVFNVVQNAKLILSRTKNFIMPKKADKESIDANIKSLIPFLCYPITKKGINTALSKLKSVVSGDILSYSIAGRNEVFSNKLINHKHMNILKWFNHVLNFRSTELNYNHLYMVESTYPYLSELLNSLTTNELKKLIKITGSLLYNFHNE
T1 sequence (P03421 whole entry, chain 2 of 2): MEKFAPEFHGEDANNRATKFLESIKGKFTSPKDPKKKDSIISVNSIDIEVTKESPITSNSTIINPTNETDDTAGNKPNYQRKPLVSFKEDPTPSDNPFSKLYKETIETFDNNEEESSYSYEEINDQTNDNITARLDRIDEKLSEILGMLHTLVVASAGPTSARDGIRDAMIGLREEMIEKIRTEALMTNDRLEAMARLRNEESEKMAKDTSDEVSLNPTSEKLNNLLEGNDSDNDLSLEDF

Turning to UUUUUCUCGU (ssRNA) [TrC10 (3' trailer complementary promoter of antigenome)], the binding result in series [1] was “binds”.

As for UUUUUCGCGU (ssRNA) [Le10 (3' leader promoter of genome)], the binding result in series [2] was “binds”.
